B1: mRNA-splicing (parent)
chain: AGUUGCUGCUGGGAGCUCCAGCACAGUGAAAUGGACAGAAGGGCAGAGCAA

Variants of: B1
Assay: exon inclusion enrichment index; higher = more inclusion; WT1 exon 5 minigene, HEK293

Variant | exon inclusion enrichment index
AGUUGCUGCUGGGAGCUCCAGCACAGUGAAAUGGACGGAAGGGCAGAGCAA [A37G] | 0.438
AGUUGCUGCUGGGAGCUCCAGCACAGUGAAAUGGACUGAAGGGCAGAGCAA [A37U] | 0.121
AGUUGCUGCUGGGAGCUCCAGCACAGUGAAAUGGACCGAAGGGCAGAGCAA [A37C] | 0.637
AGUUGCUGCUGGGAGCUCCAGCACAGUGAACAGGACAGAAGGGCAGAGCAA [A31C U32A] | 0.0661
AGUUGCUGCUGGGAGCUCCAGCACAGUGAACGGGACAGAAGGGCAGAGCAA [A31C U32G] | 0.373
AGUUGCUGCUGGGAGCUCCAGCACAGUGAACCGGACAGAAGGGCAGAGCAA [A31C U32C] | 0.643
AGUUGCUGCUGGGAGCUCCAGCACAGUGAAAUGCGCAGAAGGGCAGAGCAA [G34C A35G] | 0.0695
AGUUGCUGCUGGGAGCUCCAGCACAGUGAAAUGCCCAGAAGGGCAGAGCAA [G34C A35C] | 0.00408
AGUUGCUGCUGGGAGCUCCAGCACAGUGAAAUGCUCAGAAGGGCAGAGCAA [G34C A35U] | 0.0271
AGUUGCUGCUGGGAGCUCCAGCACAGUGAGGUGGACAGAAGGGCAGAGCAA [A30G A31G] | 0.0117
AGUUGCUGCUGGGAGCUCCAGCACAGUGAGUUGGACAGAAGGGCAGAGCAA [A30G A31U] | 0.0224
AGUUGCUGCUGGGAGCUCCAGCACAGUGAAAGCGACAGAAGGGCAGAGCAA [U32G G33C] | 0.143
AGUUGCUGCUGGGAGCUCCAGCACAGUGAAAGAGACAGAAGGGCAGAGCAA [U32G G33A] | 0.042
AGUUGCUGCUGGGAGCUCCAGCACAGUGAAAGUGACAGAAGGGCAGAGCAA [U32G G33U] | 0.0308
AGUUGCUGCUGGGAGCUCCAGCACAGUGAAAUGGAGAGAAGGGCAGAGCAA [C36G] | 0.0745
AGUUGCUGCUGGGAGCUCCAGCACAGUGAAAUGGAAAGAAGGGCAGAGCAA [C36A] | 0.0939
AGUUGCUGCUGGGAGCUCCAGCACAGUGAAAUGGAUAGAAGGGCAGAGCAA [C36U] | 0.0249
AGUUGCUGCUGGGAGCUCCAGCACAGUGAAAUCCACAGAAGGGCAGAGCAA [G33C G34C] | 0.0456
AGUUGCUGCUGGGAGCUCCAGCACAGUGAAAUCAACAGAAGGGCAGAGCAA [G33C G34A] | 0.0659
AGUUGCUGCUGGGAGCUCCAGCACAGUGAAAUCUACAGAAGGGCAGAGCAA [G33C G34U] | 0.0871
AGUUGCUGCUGGGAGCUCCAGCACAGUGAAACGGACAGAAGGGCAGAGCAA [U32C] | 0.336
AGUUGCUGCUGGGAGCUCCAGCACAGUGAAAAGGACAGAAGGGCAGAGCAA [U32A] | 0.107
AGUUGCUGCUGGGAGCUCCAGCACAGUGAAAGGGACAGAAGGGCAGAGCAA [U32G] | 0.0106
AGUUGCUGCUGGGAGCUCCAGCACAGUGAAAUGGAUUGAAGGGCAGAGCAA [C36U A37U] | 0.0501
AGUUGCUGCUGGGAGCUCCAGCACAGUGAAAUGGAUGGAAGGGCAGAGCAA [C36U A37G] | 0.156
AGUUGCUGCUGGGAGCUCCAGCACAGUGAAAUGGAUCGAAGGGCAGAGCAA [C36U A37C] | 0.0746

Variant | exon inclusion enrichment index
AGUUGCUGCUGGGAGCUCCAGCACAGUGAAAUGGGAAGAAGGGCAGAGCAA [A35G C36A] | 0.0734
AGUUGCUGCUGGGAGCUCCAGCACAGUGAAAUGGGUAGAAGGGCAGAGCAA [A35G C36U] | 0.00277
AGUUGCUGCUGGGAGCUCCAGCACAGUGAAAUGGGGAGAAGGGCAGAGCAA [A35G C36G] | 0.00669
AGUUGCUGCUGGGAGCUCCAGCACAGUGAAUGGGACAGAAGGGCAGAGCAA [A31U U32G] | 0.056
AGUUGCUGCUGGGAGCUCCAGCACAGUGAAUAGGACAGAAGGGCAGAGCAA [A31U U32A] | 0.00762
AGUUGCUGCUGGGAGCUCCAGCACAGUGAAUCGGACAGAAGGGCAGAGCAA [A31U U32C] | 0.301
AGUUGCUGCUGGGAGCUCCAGCACAGUGAUAUGGACAGAAGGGCAGAGCAA [A30U] | 0.0645
AGUUGCUGCUGGGAGCUCCAGCACAGUGAAAUGGACUAAAGGGCAGAGCAA [A37U G38A] | 0.0367
AGUUGCUGCUGGGAGCUCCAGCACAGUGAAAUGGACUUAAGGGCAGAGCAA [A37U G38U] | 0.0123
AGUUGCUGCUGGGAGCUCCAGCACAGUGAAAUGGACUCAAGGGCAGAGCAA [A37U G38C] | 0.0886
AGUUGCUGCUGGGAGCUCCAGCACAGUGAAAUGGAACGAAGGGCAGAGCAA [C36A A37C] | 0.209
AGUUGCUGCUGGGAGCUCCAGCACAGUGAAAUGGAAGGAAGGGCAGAGCAA [C36A A37G] | 0.0199
AGUUGCUGCUGGGAGCUCCAGCACAGUGAAAUGGAAUGAAGGGCAGAGCAA [C36A A37U] | 0.0531
AGUUGCUGCUGGGAGCUCCAGCACAGUGAAGCGGACAGAAGGGCAGAGCAA [A31G U32C] | 0.99
AGUUGCUGCUGGGAGCUCCAGCACAGUGAAGAGGACAGAAGGGCAGAGCAA [A31G U32A] | 1.08
AGUUGCUGCUGGGAGCUCCAGCACAGUGAAGGGGACAGAAGGGCAGAGCAA [A31G U32G] | 0.104
AGUUGCUGCUGGGAGCUCCAGCACAGUGAAAUGGUAAGAAGGGCAGAGCAA [A35U C36A] | 0.000875
AGUUGCUGCUGGGAGCUCCAGCACAGUGAAAUGGUUAGAAGGGCAGAGCAA [A35U C36U] | 0.000825
AGUUGCUGCUGGGAGCUCCAGCACAGUGAAAUGGUGAGAAGGGCAGAGCAA [A35U C36G] | 0.00845
AGUUGCUGCUGGGAGCUCCAGCACAGUGAAAUGACCAGAAGGGCAGAGCAA [G34A A35C] | 0.0806
AGUUGCUGCUGGGAGCUCCAGCACAGUGAAAUGAUCAGAAGGGCAGAGCAA [G34A A35U] | 0.0211
AGUUGCUGCUGGGAGCUCCAGCACAGUGAAAUGAGCAGAAGGGCAGAGCAA [G34A A35G] | 0.0204
AGUUGCUGCUGGGAGCUCCAGCACAGUGAAAUGGACCUAAGGGCAGAGCAA [A37C G38U] | 0.0604
AGUUGCUGCUGGGAGCUCCAGCACAGUGAAAUGGACCAAAGGGCAGAGCAA [A37C G38A] | 0.152
AGUUGCUGCUGGGAGCUCCAGCACAGUGAAAUGGACCCAAGGGCAGAGCAA [A37C G38C] | 0.217

Source: the RNAGym collection of RNA variant scans (doi:10.1101/gr.219683.116)
